In doi:10.1101/123679 (bioRxiv, 2017):

Legend:
Assay in all cases: FRET or BRET
[1] = biological target: T1, mRFP-RTN1 (Arabidopsis reticulon 1) (Arabidopsis thaliana, UniProt Q9SUR3 1-275)
T1 sequence (looked up): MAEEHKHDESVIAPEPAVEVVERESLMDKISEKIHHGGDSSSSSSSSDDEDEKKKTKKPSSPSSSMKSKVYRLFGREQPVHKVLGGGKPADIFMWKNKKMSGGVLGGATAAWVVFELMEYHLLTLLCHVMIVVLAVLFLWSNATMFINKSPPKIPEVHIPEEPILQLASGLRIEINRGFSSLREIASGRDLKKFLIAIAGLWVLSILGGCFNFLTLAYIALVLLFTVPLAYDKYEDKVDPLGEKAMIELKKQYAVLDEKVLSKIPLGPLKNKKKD

[2] = biological target: T2, RTN2 fused to mRFP (Arabidopsis reticulon 2) (Arabidopsis thaliana, UniProt Q9SUT9 1-271)
T2 sequence (looked up): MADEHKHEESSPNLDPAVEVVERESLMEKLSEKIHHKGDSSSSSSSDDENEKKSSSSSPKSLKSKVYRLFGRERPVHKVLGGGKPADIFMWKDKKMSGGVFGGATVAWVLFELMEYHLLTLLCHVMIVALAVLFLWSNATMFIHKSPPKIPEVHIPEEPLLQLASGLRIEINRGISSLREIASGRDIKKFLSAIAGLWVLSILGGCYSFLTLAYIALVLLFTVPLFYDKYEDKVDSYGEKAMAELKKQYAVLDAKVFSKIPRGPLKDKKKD

[3] = biological target: T3, RTN3 fused to mRFP (Arabidopsis reticulon 3) (Arabidopsis thaliana, UniProt Q9SH59 1-255)
T3 sequence (looked up): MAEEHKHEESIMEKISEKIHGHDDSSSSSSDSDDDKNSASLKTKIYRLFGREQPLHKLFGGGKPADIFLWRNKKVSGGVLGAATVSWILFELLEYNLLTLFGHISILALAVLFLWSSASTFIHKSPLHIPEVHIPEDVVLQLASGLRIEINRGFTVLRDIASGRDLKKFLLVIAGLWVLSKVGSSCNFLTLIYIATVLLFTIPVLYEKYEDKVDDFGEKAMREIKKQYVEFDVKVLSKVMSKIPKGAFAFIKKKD

[4] = biological target: T4, RTN19 fused to mRFP (Arabidopsis reticulon 19, 3BETAHSD/D2) (Arabidopsis thaliana, UniProt Q67ZE1 1-564)
T4 sequence (looked up): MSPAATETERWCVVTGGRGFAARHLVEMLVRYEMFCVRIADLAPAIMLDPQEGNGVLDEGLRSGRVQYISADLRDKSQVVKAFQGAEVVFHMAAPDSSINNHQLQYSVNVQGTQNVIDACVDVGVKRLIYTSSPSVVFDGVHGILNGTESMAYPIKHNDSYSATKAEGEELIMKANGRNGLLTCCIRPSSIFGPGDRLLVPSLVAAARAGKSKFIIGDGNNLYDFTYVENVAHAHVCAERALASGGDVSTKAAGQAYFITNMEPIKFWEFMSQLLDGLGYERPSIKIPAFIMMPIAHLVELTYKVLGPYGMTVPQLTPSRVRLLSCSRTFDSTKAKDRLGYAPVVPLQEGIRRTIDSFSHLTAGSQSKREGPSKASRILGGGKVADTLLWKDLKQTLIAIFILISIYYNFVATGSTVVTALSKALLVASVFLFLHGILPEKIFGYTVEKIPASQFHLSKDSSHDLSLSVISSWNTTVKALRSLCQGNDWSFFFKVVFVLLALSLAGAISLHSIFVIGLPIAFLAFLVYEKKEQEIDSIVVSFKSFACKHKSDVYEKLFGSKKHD

B1: GFP-RTN20 (Arabidopsis reticulon 20) (natural protein, Arabidopsis thaliana, UniProt A9X4U2 1-561, looked up)
chain: MDEDSVHGDSHLKTCVVLGGRGFIGRSLVSRLLRLGNWTVRVADSGHTLHLDESDSLLEDALSSGRASYHCVDVRDKPQIVKVTEGSYVVFYMGATDLRSHDYFDCYKVIVQGTRNVISACRESGVRKLIYNSTADVVFDGSQPIRDGDESLRRPLKFQSMLTDFKAQAEALIKLANNRDGLLTCALRSSIVFGPGDTEFVPFLVNLAKSGYAKFILGSGENISDFTYSENVSHAHICAVKALDSQMEFVAGKEFFITNLKPVRFWDFVSHIVEGLGYPRPSIKLPVRLVLYVFSLLKWTHEKEGLGSNYDTAHQYALLASSTRTFNCNAAKKHLGYTPVVTLEDGIASTLQWFSRDLEKSDDTIIQSTADQLLGCGKVADILLWRNEKKTFVSFLVLNLFYYWFFFSGNTFTSSAAQLLFIFAVALYGVSFVPSKIFGFQVNKIPPWRFEISESAVRDLSSDIVVVWNQGVRSFKSLSSGGDWIKFFKIAGSLYLLKLIVSRSLAAFLFTVMSFSFTGFFIYEQYELELYHLARIFVECLTFIKRMVIPVSDASSKPMFM
- fluorescence lifetime of the GFP donor (FRET-FLIM) [1]: 2.21 ns
- fluorescence lifetime of the GFP donor (FRET-FLIM) [2]: 2.2 ns
- fluorescence lifetime of the GFP donor (FRET-FLIM) [3]: 2.2 ns
- fluorescence lifetime of the GFP donor (FRET-FLIM) [4]: 2.2 ns
